In test [1] the target is T1, Human PD-1 / PDCD1 Protein, His Tag (ACRO) (human, UniProt Q15116 25-167).
T1 construct: Bought reagent (ACRO); no catalogue number, no construct limits; also called CD279; not shown: His tag
Kind of test: flow cytometry, soluble tagged antigen staining T cells that carry the construct. (In general: Flow cytometry measures light scatter and fluorescence of single cells or particles in a stream.)

Test [2] deals with T2, Human CTLA-4 / CD152 Protein, Fc Tag (ACRO) (human, UniProt P16410 36-161, limits assumed).
T2 construct: Bought reagent (ACRO); no catalogue number, no construct limits; not shown: Fc tag
T2 sequence (looked up): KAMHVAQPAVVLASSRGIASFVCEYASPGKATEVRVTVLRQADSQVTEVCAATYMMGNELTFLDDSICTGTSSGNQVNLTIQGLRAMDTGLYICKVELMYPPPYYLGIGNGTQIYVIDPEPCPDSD
The test is described as above.

T1 sequence (Q15116 25-167 limits assumed): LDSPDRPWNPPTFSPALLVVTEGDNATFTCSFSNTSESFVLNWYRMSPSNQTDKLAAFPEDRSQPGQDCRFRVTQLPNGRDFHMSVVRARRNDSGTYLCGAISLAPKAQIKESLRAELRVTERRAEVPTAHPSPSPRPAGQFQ

B1: immunosuppressive molecule of plasmid CAR19-PC4 (anti-PD1 scFv, linker, anti-CTLA4 scFv, IgG4 hinge, CD28 transmembrane region, CD28 co-stimulatory domain), on … (other)
chain: QVQLVQSGVEVKKPGASVKVSCKASGYTFTNYYMYWVRQAPGQGLEWMGGINPSNGGTNFNEKFKNRVTLTTDSSTTTAYMELKSLQFDDTAVYYCARRDYRFDMGFDYWGQGTTVTVSSGGGGSGGGGSGGGGSEIVLTQSPATLSLSPGERATLSCRASKGVSTSGYSYLHWYQQKPGQAPRLLIYLASYLESGVPARFSGSGSGTDFTLTISSLEPEDFAVYYCQHSRDLPLTFGGGTKVEIKGGGGSGGGGSGGGGSQVQLVESGGGVVQPGRSLRLSCAASGFTFSSYGMHWVRQAPGKGLEWVAVIWYDGSNKYYADSVKGRFTISRDNSKNTLYLQMNSLRAEDTAVFYCARAPNYIGAFDVWGQGTMVTVSSGGGGSGGGGSGGGGSDIQMTQSPSSLSASVGDRVTITCRASQGISSWLAWYQQKPEKAPKSLIYAASSLQSGVPSRFSGSGSGTDFTLTISSLQPEDFATYYCQQYNSYPPTFGQGTKVEIKESKYGPPCPPCPFWVLVVVGGVLACYSLLVTVAFIIFWVRSKRSRLLHSDYMNMTPRRPGPTRKHYQPYAPPRDFAAYRS
notes: Membrane-anchored on transduced T cells that also express the anti-CD19 CAR
As for B1, the binding result in test [1] and in test [2] was “binds” in each case.

B2: immunosuppressive molecule of plasmid CAR19-C4 (anti-CTLA4 scFv, IgG4 hinge, CD28 transmembrane region, CD28 co-stimulatory domain), on CAR19-C4 T cells (other)
chain: QVQLVESGGGVVQPGRSLRLSCAASGFTFSSYGMHWVRQAPGKGLEWVAVIWYDGSNKYYADSVKGRFTISRDNSKNTLYLQMNSLRAEDTAVFYCARAPNYIGAFDVWGQGTMVTVSSGGGGSGGGGSGGGGSDIQMTQSPSSLSASVGDRVTITCRASQGISSWLAWYQQKPEKAPKSLIYAASSLQSGVPSRFSGSGSGTDFTLTISSLQPEDFATYYCQQYNSYPPTFGQGTKVEIKESKYGPPCPPCPFWVLVVVGGVLACYSLLVTVAFIIFWVRSKRSRLLHSDYMNMTPRRPGPTRKHYQPYAPPRDFAAYRS
notes: as for B1
Consider B2, for which the binding result in test [2] is reported as “binds”.

B3: immunosuppressive molecule of plasmid CAR19-PT3 (anti-PD1 scFv, linker, anti-TIM3 scFv, IgG4 hinge, CD28 transmembrane region, CD28 co-stimulatory domain), on … (other)
chain: QVQLVQSGVEVKKPGASVKVSCKASGYTFTNYYMYWVRQAPGQGLEWMGGINPSNGGTNFNEKFKNRVTLTTDSSTTTAYMELKSLQFDDTAVYYCARRDYRFDMGFDYWGQGTTVTVSSGGGGSGGGGSGGGGSEIVLTQSPATLSLSPGERATLSCRASKGVSTSGYSYLHWYQQKPGQAPRLLIYLASYLESGVPARFSGSGSGTDFTLTISSLEPEDFAVYYCQHSRDLPLTFGGGTKVEIKGGGGSGGGGSGGGGSQVQLVQSGAEVKKPGSSVKVSCKASGYTFTSYNMHWVRQAPGQGLEWMGDIYPGNGDTSYNQKFKGRVTITADKSTSTVYMELSSLRSEDTAVYYCARVGGAFPMDYWGQGTTVTVSSGGGGSGGGGSGGGGSAIQLTQSPSSLSASVGDRVTITCRASESVEYYGTSLMQWYQQKPGKAPKLLIYAASNVESGVPSRFSGSGSGTDFTLTISSLQPEDFATYFCQQSRKDPSTFGGGTKVEIKESKYGPPCPPCPFWVLVVVGGVLACYSLLVTVAFIIFWVRSKRSRLLHSDYMNMTPRRPGPTRKHYQPYAPPRDFAAYRS
notes: as for B1
Consider B3, for which the binding result in test [1] is recorded as “binds”.

B4: immunosuppressive molecule of plasmid CAR19-C4T3 (anti-CTLA4 scFv, linker, anti-TIM3 scFv, IgG4 hinge, CD28 transmembrane region, CD28 co-stimulatory domain), … (other)
chain: QVQLVESGGGVVQPGRSLRLSCAASGFTFSSYGMHWVRQAPGKGLEWVAVIWYDGSNKYYADSVKGRFTISRDNSKNTLYLQMNSLRAEDTAVFYCARAPNYIGAFDVWGQGTMVTVSSGGGGSGGGGSGGGGSDIQMTQSPSSLSASVGDRVTITCRASQGISSWLAWYQQKPEKAPKSLIYAASSLQSGVPSRFSGSGSGTDFTLTISSLQPEDFATYYCQQYNSYPPTFGQGTKVEIKGGGGSGGGGSGGGGSQVQLVQSGAEVKKPGSSVKVSCKASGYTFTSYNMHWVRQAPGQGLEWMGDIYPGNGDTSYNQKFKGRVTITADKSTSTVYMELSSLRSEDTAVYYCARVGGAFPMDYWGQGTTVTVSSGGGGSGGGGSGGGGSAIQLTQSPSSLSASVGDRVTITCRASESVEYYGTSLMQWYQQKPGKAPKLLIYAASNVESGVPSRFSGSGSGTDFTLTISSLQPEDFATYFCQQSRKDPSTFGGGTKVEIKESKYGPPCPPCPFWVLVVVGGVLACYSLLVTVAFIIFWVRSKRSRLLHSDYMNMTPRRPGPTRKHYQPYAPPRDFAAYRS
notes: as for B1
With B4, in test [2], the binding result was “binds”.

These data come from patent publication EP4663762A2 (HongKong Bioheng Biotech Limited, dated 2025).
